What was measured:
[1] = system: ⍺4β7 on primary CD8^+ T cells; experiment: Flow cytometry: FAM-conjugated pCD4^165-178 binding to RA-treated primary CD8^+ T cells; design: species or system human; conditions: FAM-Ttds-labelled peptide 1.25 μg/200,000 cells in 100 μl; MnCl2; 3 independent experiments
Description: To further investigate the interaction between pCD4^165-178 and ⍺4β7 we attached a fluorescein dye to its amino terminus via a trioxatridecan-succinamic acid (Ttds) linker (Fig 5A). A scrambled pCD4^165-178 was employed as a control. […] FIB504 and vedolizumab inhibited binding by ~50%. This inhibition pattern resembles the one we obtained when inhibiting D1D2-Ig⍺tp with the same antagonists (Fig 3). We conclude that the CD4 D2 G β-strand binds directly to the headpiece region of ⍺4β7 in a cation dependent manner. Support for this conclusion, in the form of site directed mutagenesis within the D2 G β-strand is provided below.
Fig 5 Direct binding of pCD4^165-178 to ⍺4β7 on primary T cells. (A) Sequence of FAM -conjugated pCD4^165-178 and a scrambled derivative (FAM-scr pCD4^165-178). (B) Flow-cytometry derived histogram of pCD4^165-178 binding to RA -cultured CD8^+ T cells. pCD4^165-178 in the presence (green), or absence of Mn^++(black). Unstained cells are shown (grey). (C) Binding of pCD4^165-178 and its scrambled derivative to CD8^+ T cells in the presence of MnCl2 as in panel B, and in the presence of ⍺4 and ⍺4β7 antagonists, as indicated. Y-axis indicates % cells bound. Error bars represent standard error from 3 independent experiments.
Cells were stained with fluoresceine conjugated mAbs or recombinant proteins using standard procedures preceded by Fc receptor blocking with human IgG. Buffers used were 10 mM HEPES 150 mM NaCl (HBS Buffer) with 100 μM CaCl2. 1 mM MnCl2 was also included, unless otherwise specified. Buffer without divalent cations included 0.1 mM EDTA. Unlabeled mAb or protein inhibitors were preincubated with cells or proteins at a 5X molar excess for 15 min on ice. FAM labeled peptides were used at 1.25 μg/ 200,000 cells in a 100 μl volume. Data were acquired using a FACSCanto II (BD Biosciences) and analyzed with FlowJo software (BD Biosciences). Plotted MFI values represent absolute values.

⍺4β7 on RPMI8866 cells [2] = experiment: Flow cytometry: MAdCAM-Ig staining of RPMI8866 cells with ⍺4 and β7 antagonists; type: binding, human; conditions: antagonist at 1 μg/ml
Description: (§1) Several mAbs and small molecule antagonists of ⍺4β7 and ⍺4β1 have been developed to treat diseases, including IBD and MS. […] Vedolizumab and etrolizumab are β7 mAbs, based on murine mAbs Act-1 and FIB504, respectively. Both are used to treat IBDs, [50, 51]. Natulizumab is an ⍺4 specific humanized version of the mouse mAb HP2/1 used to treat Multiple Sclerosis (MS). […] To determine whether these antagonists block CD4 binding to α4β7, we stained RPMI8866 cells with D1D2-Ig⍺tp in the absence or presence of increasing concentrations of each (Fig 3).
(§2) Y-axis indicates gMFI. Dashed and solid lines represent gMFI of D1D2-Ig⍺tp and MAdCAM-Ig respectively, in the absence of any antagonist.
(§3) Cells were stained with fluoresceine conjugated mAbs or recombinant proteins using standard procedures preceded by Fc receptor blocking with human IgG. Buffers used were 10 mM HEPES 150 mM NaCl (HBS Buffer) with 100 μM CaCl2. 1 mM MnCl2 was also included, unless otherwise specified.

⍺4β7 on RPMI8866 cells [3] = experiment: Flow cytometry: D1D2-Ig⍺tp staining of RPMI8866 cells with ⍺4 and β7 antagonists; type: binding, human; conditions: antagonist at 10 μg/ml, 1 mM MnCl2
Description: as §1, §2, §3

CD4 D1D2 = experiment: SPR cross-inhibition: ⍺4β7 binding to immobilized CD4 D1D2 after preincubation of the surface with CD4 mAbs; conditions: surface preincubated with mAb, Fig 8C
Description: Fig 8 Mutating a gp120 contact site in CD4 D1 abrogates CD4-⍺4β7 interactions. (A) Positions of amino acid substitutions introduced into D1D2-Ig⍺tp are indicated on a space-filling model of CD4 D1D2. Substitutions at S42/F43 in D1 (green) and K171 in D2 (purple) are shown. Approximate locations of mAb Leu3A and ibalizumab epitopes are indicated. (B) Flow-cytometric analysis of increasing amounts of D1D2-Ig⍺tp and mutant derivatives binding to ⍺4β7 on CD8^+ T cells. Y-axis indicates % cells bound. (C) SPR analysis of soluble ⍺4β7 binding to a D1D2 coated surface following preincubation of the surface with ibalizumab (red), mAb Leu3A (light green), or ⍺4β7 (dark green). Y-axis indicates the mass of soluble ⍺4β7 bound at the end of the association phase. Mass of prebound inhibitors is subtracted. (D) Flow-cytometric analysis of unlabeled gp120 inhibiting PE labeled D1D2-Ig⍺tp binding to ⍺4β7 on CD8^+ T cells. The integrin ⍺4 antagonist FG was employed as a control. Y-axis indicates MFI.
Experiments were performed using a Biacore 3000 instrument (Cytiva Life Sciences) using CM4 or CM5 sensor chips. The data were evaluated using BIAevaluation 4.1.1 software (Cytiva Life Sciences). […] The ability of each analyte to inhibit either itself or ⍺4β7 was determined by comparing the binding of ⍺4β7 in the absence or presence of the listed pre-bound analytes as previously described. […]

⍺4β7 on RPMI8866 cells [4] = experiment: Flow cytometry: ligand staining of ⍺4β7-expressing cells in buffers with different divalent cations; type: binding, human; conditions: absence of divalent cations (0.1 mM EDTA)
Description: Fig 1 Binding of soluble CD4 to ⍺4β7 on CD4^+ T cells. (A) Schematic of D1D2-Ig⍺tp. (B) Flow-cytometry histogram of PE-conjugated D1D2-Ig⍺tp staining of CD4^+ T cells alone (blue) or in the presence of either the anti ⍺4 mAb 2B4 (green) or an irrelevant mAb (black-dashed). Cells stained with PE-conjugated MicA-Ig⍺tp (red), along with unstained cells (grey) are included. X-axis indicates geometric mean fluorescence intensity (gMFI). (C) 293T cells untransfected or co-transfected with ⍺4 and β7 expression vectors stained with either PE-D1D2-Ig⍺tp or PE-MAdCAM-Ig in the absence or presence of the ⍺4 antagonist FG. Y-axis indicates gMFI. (D) CD4^+ T cells stained with anti CD45RO (x-axis) anti β7 (y-axis) (left), or with anti CD45RO (x-axis) and D1D2-Ig⍺tp (y-axis) (right). % cells in each quadrant, as indicated. (E) CD4^+ T cells stained as in B, with lower MW forms of oligomerized D1D2-Ig⍺tp. Left Y-axis indicates gMFI (bars), right Y-axis indicates relative MW (kDa) (•). […]
(§4) Cells were stained with fluoresceine conjugated mAbs or recombinant proteins using standard procedures preceded by Fc receptor blocking with human IgG. […] Data were acquired using a FACSCanto II (BD Biosciences) and analyzed with FlowJo software (BD Biosciences). […]

⍺4β7 = experiment: SPR binding kinetics: recombinant ⍺4β7 passed over ligand-coated surfaces (S1 Table); conditions: SPR Biacore 3000, ligand immobilized, ⍺4β7 analyte, HBS pH 7.4, 1 mM MnCl2, 25°C
Experimental: To measure the specific affinity of CD4–⍺4β7 interactions we developed a surface plasmon resonance (SPR) -based assay in which recombinant ⍺4β7 was passed over a surface coated with a 23 kD D1D2 protein (aa 1–183). For comparison we prepared surfaces with recombinant MAdCAM-Ig, VCAM-Ig, monomeric gp120, and a SOSIP env trimer (S1 Table). Assays were carried out in the presence of MnCl2 to present ⍺4β7 in an active conformation. […] This rate of dissociation was similar to that of both MAdCAM-Ig and VCAM-Ig with ⍺4β7 and is indicative of a relatively high-affinity interaction.
Experiments were performed using a Biacore 3000 instrument (Cytiva Life Sciences) using CM4 or CM5 sensor chips. The data were evaluated using BIAevaluation 4.1.1 software (Cytiva Life Sciences). The chip surface was activated by injecting 35 μl of a 1:1 mixture of 0.05 M N-hydroxysuccinimide and 0.2 M N-ethyl-N-(dimethylaminopropyl) carbodiimide at 5 μl/min. NeutrAvidin, HIV gp120, sCD4 (D1D2) or Hu-MAdCAM-Ig (R&D Systems) at concentrations of 5 μg/ml in 10mM NaOAc, pH 4.5, were immobilized to 250–750 resonance units (RU). After the proteins were immobilized to the desired densities, unreacted sites were blocked with 35 μl of 1 M Tris-HCl (pH 8.0). Biotinylated cyclic V2 peptides (1 μg/ml in 20 mM Tris-HCl, pH 8.0) were bound to the NeutrAvidin surfaces to densities of approximately 250–300 RU. One surface was activated and blocked without ligand as a control surface for non-specific binding. Signal from the control surface was subsequently subtracted. Running buffer was HBS (pH 7.4), 1 mM MnCl2, 0.005% Tween- 20, 0.05% soluble carboxymethyl-dextran. Binding experiments were carried out at a flow rate of 25 μl/min at 25°C. After a 2 min injection, the surface was washed for an additional 2 min in running buffer allowing dissociation of the bound ligand from the surface. The surfaces were regenerated by multiple injections of 4.5 M MgCl2 at a flow rate of 100 μl/min. Inhibition of ⍺4β7 binding by linear V2-loop and CD4 derived peptides was carried out by pre-incubating ⍺4β7 with the peptides in running buffer at the indicated concentrations for 2 hours at room temperature prior to passing them over the prepared surfaces as described above. Cross-inhibition experiments were performed by passing either buffer or the listed analytes over a surface to which sCD4 (D1D2) had been immobilized, followed by a secondary sequential injection of ⍺4β7. The ability of each analyte to inhibit either itself or ⍺4β7 was determined by comparing the binding of ⍺4β7 in the absence or presence of the listed pre-bound analytes as previously described. Illustration of the dynamic range of range of linear peptide inhibition assays is provided in S4 Fig.

⍺4β7 on RPMI8866 cells [5] = experiment: Flow cytometry: cross-inhibition of MAdCAM-Ig, VCAM-Ig and D1D2-Ig⍺tp binding to RPMI8866 cells; design: species or system human; conditions: increasing concentrations of unlabeled inhibitor, Fig 2C, 2D
Experimental: Cis interactions between various integrins and leukocyte receptors are known to regulate immune cell functions. To determine whether CD4 inhibits MAdCAM-1 or VCAM-1 binding to ⍺4β7 we preincubated RPMI8866 cells with labelled MAdCAM-Ig or VCAM-Ig in the presence of increasing concentrations of unlabeled D1D2-Ig⍺tp. […] This implies that MAdCAM-1 and VCAM-1, acting in trans, may interfere with CD4-⍺4β7 interactions. What remains unknown is whether interactions between ⍺4β7 and CD4 impact CD4 migration into the TCR and subsequent interactions with MHC II (Fig 2E).
Fig 2 Cross-inhibition of MAdCAM-Ig, VCAM-Ig and D1D2-Ig⍺tp binding to ⍺4β7. Flow cytometric analysis of (A) PE -conjugated MAdCAM-Ig or (B) PE -conjugated VCAM-Ig binding to RPMI8866 cells pre-incubated with increasing concentrations of unlabeled D1D2-Igαtp. Cell preincubated with increasing concentrations of (C) unlabeled MAdCAM-Ig or (D) VCAM-Ig followed by PE -conjugated D1D2-Ig⍺tp. Y-axis indicates gMFI. Dashed line indicates gMFI in the absence of any inhibitor.
as §4, with “IgG. Buffers used were 10 mM HEPES 150 mM NaCl (HBS Buffer) with 100 μM CaCl2.” for “IgG.”

## Vedolizumab: β7 mAb based on murine mAb Act-1
[1]
  reduction of pCD4^165-178 binding to CD8^+ T cells: ~ 50%
⍺4β7 on RPMI8866 cells [2]
  inhibition of MAdCAM-Ig binding (in words): blocked MAdCAM-Ig efficiently
⍺4β7 on RPMI8866 cells [3]
  reduction of D1D2-Ig⍺tp binding: ~ 50%

## Ibalizumab: CD4 D2 mAb
CD4 D1D2
  inhibition of ⍺4β7 binding to surface immobilized CD4 D1D2 (in words): failed to inhibit

B1: VCAM-Ig: recombinant VCAM-1 Ig fusion, R&D Systems (protein)
chain: FKIETTPESRYLAQIGDSVSLTCSTTGCESPFFSWRTQIDSPLNGKVTNEGTTSTLTMNPVSFGNEHSYLCTATCESRKLEKGIQVEIYSFPKDPEIHLSGPLEAGKPITVKCSVADVYPFDRLEIDLLKGDHLMKSQEFLEDADRKSLETKSLEVTFTPVIEDIGKVLVCRAKLHIDEMDSVPTVRQAVKELQVYISPKNTVISVNPSTKLQEGGSVTMTCSSEGLPAPEIFWSKKLDNGNLQHLSGNATLTLIAMRMEDSGIYVCEGVNLIGKNRKEVELIVQEKPFTVEISPGPRIAAQIGDSVMLTCSVMGCESPSFSWRTQIDSPLSGKVRSEGTNSTLTLSPVSFENEHSYLCTVTCGHKKLEKGIQVELYSFPRDPEIEMSGGLVNGSSVTVSCKVPSVYPLDRLEIELLKGETILENIEFLEDTDMKSLENKSLEMTFIPTIEDTGKALVCQAKLHIDDMEFEPKQRQSTQTLYVNVAPRDTTVLVSPSSILEEGSSVNMTCLSQGFPAPKILWSRQLPNGELQPLSENATLTLISTKMEDSGVYLCEGINQAGRSRKEVELIIQVTPKDIKLTAFPSESVKEGDTVIISCTCGNVPETWIILKKKAETGDTVLKSIDGAYTIRKAQLKDAGVYECESKNKVGSQLRSLTLDVQGRENNKDYFSPE
modifications: left off: Ig (Fc, from the name VCAM-Ig), end not stated, kept
notes: recombinant VCAM-1 Ig fusion, R&D Systems
⍺4β7 on RPMI8866 cells [4]
  binding to ⍺4β7 (in words): failed to bind
⍺4β7
  KA: 2.76e+07 M⁻¹
  ka: 38700 M⁻¹ s⁻¹
  kd: 0.00141 s⁻¹
⍺4β7 on RPMI8866 cells [5]
  inhibition of PE-conjugated D1D2-Ig⍺tp binding to ⍺4β7 (in words): inhibited D1D2-Ig⍺tp binding to ⍺4β7 in a dose dependent manner

Source: PMC10732398 (PLOS Pathogens, 2023)
